Assays:
γc-JAK-3 interaction = biological target: T1, γc-JAK-3 interaction (Homo sapiens, UniProt P52333); assay: Assay for compounds that inhibit IL-2 receptor complex formation: γc-JAK-3 coprecipitation (Example 15); assay type: binding; details: peptide 140 μM added to cell lysates, anti-γc immunoprecipitation, JAK-3 immunoblot
T1 construct: endogenous in cells; host or cells: YT cells (alternatively COS-7 cells expressing γc and JAK-3)
T1 sequence (P52333 1-1124): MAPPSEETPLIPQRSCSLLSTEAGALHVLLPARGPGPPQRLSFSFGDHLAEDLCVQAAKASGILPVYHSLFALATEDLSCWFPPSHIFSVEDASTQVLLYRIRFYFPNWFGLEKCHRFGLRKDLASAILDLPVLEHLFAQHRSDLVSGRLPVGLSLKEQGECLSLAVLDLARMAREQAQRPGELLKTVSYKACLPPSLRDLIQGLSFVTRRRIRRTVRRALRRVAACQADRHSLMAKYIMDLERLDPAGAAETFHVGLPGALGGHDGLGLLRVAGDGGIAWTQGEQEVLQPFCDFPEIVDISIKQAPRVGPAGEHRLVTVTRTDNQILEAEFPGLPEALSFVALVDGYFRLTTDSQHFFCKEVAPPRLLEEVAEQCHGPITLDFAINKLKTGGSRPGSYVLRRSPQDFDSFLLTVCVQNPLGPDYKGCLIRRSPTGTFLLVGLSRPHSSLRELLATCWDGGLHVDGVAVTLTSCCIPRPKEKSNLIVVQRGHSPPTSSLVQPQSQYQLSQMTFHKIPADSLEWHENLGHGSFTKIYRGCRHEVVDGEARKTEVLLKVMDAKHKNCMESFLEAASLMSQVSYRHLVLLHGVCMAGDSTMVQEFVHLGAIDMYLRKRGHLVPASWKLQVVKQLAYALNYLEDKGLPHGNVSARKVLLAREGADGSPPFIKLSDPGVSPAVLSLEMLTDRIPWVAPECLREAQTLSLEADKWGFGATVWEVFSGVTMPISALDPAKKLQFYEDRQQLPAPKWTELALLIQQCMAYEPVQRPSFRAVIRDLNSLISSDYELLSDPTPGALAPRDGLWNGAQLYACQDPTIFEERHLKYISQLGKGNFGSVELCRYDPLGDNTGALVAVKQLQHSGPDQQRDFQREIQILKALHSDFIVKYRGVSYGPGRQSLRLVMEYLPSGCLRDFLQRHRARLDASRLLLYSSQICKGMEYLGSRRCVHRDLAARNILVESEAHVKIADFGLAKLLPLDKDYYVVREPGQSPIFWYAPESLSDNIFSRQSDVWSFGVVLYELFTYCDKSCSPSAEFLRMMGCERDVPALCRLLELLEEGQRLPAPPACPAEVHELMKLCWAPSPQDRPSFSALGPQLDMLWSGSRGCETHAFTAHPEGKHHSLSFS
Experimental: The peptide to be tested as an inhibitor corresponded to the first 19 amino acids of the γc cytoplasmic tail (sequence […]) (SEQ ID NO:7). […] The negative control peptide had the sequence […] (SEQ ID NO:10), and was synthesized so that the Tyr residue at position 5 of the peptide was phosphotyrosine. The test peptide or the negative control peptide were separately added to the cell lysates to final concentrations of 140 μM. The positive control immunoprecipitation was carried out in the absence of added peptide. Lysates were immunoprecipitated for 16 hours at 4° C. using antibodies to γc and protein A sepharose and washed six times before electrophoresis on SDS gels. The gels were immunoblotted with antisera to JAK-3 using ECL as described previously.

JAK-3 [1] = assay: Cytokine-induced tyrosine phosphorylation of JAK-3 in YT cells (Example 10); assay type: cell-based, human; details: 15 minutes stimulation, anti-JAK-3 IP, antiphosphotyrosine blot
Experimental: (§1) YT cells were serum-starved for 3 hours and acid washed twice before stimulation and immunoprecipitation. NK 3.3 cells were grown for 2 days in 10% lymphocult (Biotest) and 15% fetal bovine serum before being washed and incubated in 2% serum. Commercial polyclonal anti-JAK-1 and JAK-2 antisera were obtained from UBI and Tyk2 polyclonal antiserum from Santa Cruz Biotechnology.

JAK-1 = assay: Cytokine-induced phosphorylation and activation of JAK-1 in PHA-activated peripheral blood lymphocytes (Example 11); assay type: cell-based, human; details: for tyrosine phosphorylation of JAK-1: PBL, 15 minutes, Western blotting; for activation of JAK-1: in vitro kinase assays
Experimental: (§2) The PBL were activated for 72 hours with PHA, then washed twice at pH 6.5, incubated for 3 hours in medium containing 0.5% human serum and resuspended in medium containing 10% fetal calf serum for one hour. Cells were then lysed and immunoprecipitated with polyclonal antibodies to JAK-1 (UBI) or JAK-3. The anti-JAK-3 antibody used in these procedures has been described by Johnston et al., in Nature 370:151 (1994). Phosphotyrosine-containing proteins were detected by immunoblotting with 4G10 (UBI). […] In one procedure, the lysate was precleared with polyclonal antibody to JAK-3.

JAK-3 [2] = assay: Cytokine-induced phosphorylation and activation of JAK-3 in PHA-activated peripheral blood lymphocytes (Example 11); assay type: cell-based, human; details: for tyrosine phosphorylation of JAK-3: PBL, 15 minutes, Western blotting; for activation of JAK-3: in vitro kinase assays
Experimental: as §2

JAK-3 [3] = assay: Cytokine-induced tyrosine phosphorylation of JAK-3 in NK 3.3 cells (Example 10); assay type: cell-based, human; details: 5 or 15 minutes stimulation
Experimental: as §1
Cellular lysates were immunoprecipitated with anti-JAK-3 and blotted with antiphosphotyrosine.

“APPCYTLKPET (n-terminal fragment) [negative control peptide, reference compound]” was tested, and the “inhibition of γc-JAK-3 coprecipitation” value (γc-JAK-3 interaction) was “failed to inhibit”.

In the case of “ERTMPRIPTLKNLEDLVTE (n-terminal fragment) [competitor peptide]”, the “inhibition of γc-JAK-3 coprecipitation” value (γc-JAK-3 interaction) is reported as “partially inhibited”, the “inhibition of γc-JAK-3 coprecipitation” value (γc-JAK-3 interaction; listed as 19 amino acid long peptide spanning Leu 271) is reported as “only partially inhibited” and the “inhibition of γc-JAK-3 coprecipitation” value (γc-JAK-3 interaction; listed as 19 amino acid polypeptide having the sequence of SEQ ID NO:6) is reported as “inhibited”.

For “GM-CSF: granulocyte macrophage colony stimulating factor”, the JAK-3 tyrosine phosphorylation (JAK-3 [1]) was “not phosphorylated”.

In the case of IL-9: cytokine, known γc user, the “tyrosine phosphorylation of JAK-1” value (JAK-1) is reported as “induced tyrosine phosphorylation”, the “activation of JAK-1” value (JAK-1) is reported as “activated” and the “tyrosine phosphorylation of JAK-3” value (JAK-3 [2]) is reported as “induced tyrosine phosphorylation”. The “activation of JAK-3” value (JAK-3 [2]) was “activated”.

B1: IL-4: cytokine that utilizes the common γ chain of the IL-2 receptor (protein, UniProt P05112 25-153, looked up)
Interleukin-4: HKCDITLQEIIKTLNSLTEQKTLCTELTVTDIFAASKNTTEKETFCRAATVLRQFYSHHEKDTRCLGATAQQFHRHKQLIRFLKRLDRNLWGLAGLNSCPVKEANQSTLENFLERLKTIMREKYSKCSS
In the case of B1, the JAK-3 tyrosine phosphorylation (JAK-3 [3]) is reported as “tyrosine phosphorylated”, the “tyrosine phosphorylation of JAK-1” value (JAK-1) is reported as “induced tyrosine phosphorylation” and the “activation of JAK-1” value (JAK-1) is reported as “activated”. For the same molecule, the “tyrosine phosphorylation of JAK-3” value (JAK-3 [2]) was “induced tyrosine phosphorylation” and the “activation of JAK-3” value (JAK-3 [2]) was “activated”.

B2: IL-7: cytokine, known γc user (protein, UniProt P13232 26-177, looked up)
Interleukin-7: DCDIEGKDGKQYESVLMVSIDQLLDSMKEIGSNCLNNEFNFFKRHICDANKEGMFLFRAARKLRQFLKMNSTGDFDLHLLKVSEGTTILLNCTGQVKGRKPAALGEAQPTKSLEENKSLKEQKKLNDLCFLKRLLQEIKTCWNKILMGTKEH
With B2 the “tyrosine phosphorylation of JAK-1” value (JAK-1) was “induced tyrosine phosphorylation”, the “activation of JAK-1” value (JAK-1) was “activated” and the “tyrosine phosphorylation of JAK-3” value (JAK-3 [2]) was “induced tyrosine phosphorylation”. The “activation of JAK-3” value (JAK-3 [2]) was “activated”.

Reference: US7902348B2, “Janus family kinases and identification of immune modulators” (The United States of America as represented by the …, priority 1995, dated 2011)
